From FireProtDB (doi:10.1021/bi9929958)

B1: Superoxide dismutase [Mn], mitochondrial, P04179 (parent)
chain: MLSRAVCGTSRQLAPVLGYLGSRQKHSLPDLPYDYGALEPHINAQIMQLHHSKHHAAYVNNLNVTEEKYQEALAKGDVTAQIALQPALKFNGGGHINHSIFWTNLSPNGGGEPKGELLEAIKRDFGSFDKFKEKLTAASVGVQGSGWGWLGFNKERGHLQIAACPNQDPLQGTTGLIPLLGIDVWEHAYYLQYKNVRPDYLKAIWNVINWENVTERYMACKK

Variants of: B1
Settings: Homo sapiens; pH 7.8; Thermal; DSC; Potassium phosphate 20 mM; reversible: yes; structure 1N0J; whole UniProt chain shown

Question: What does the source list for Q167H?
Answer: Tm: 88.9 °C; change of melting temperature, mutant - wild type (higher = more stable): 0 °C

Question: For Q167E, which Tm is on record?
Answer: Its Tm is 103 °C.

Question: And the “change of melting temperature, mutant - wild type (higher = more stable)” value (“change of melting temperature, mutant” below)?
Answer: The value was 14.1 °C.

Question: For Q167V, which Tm is on record?
Answer: The Tm was 68.2 °C.

Question: And the “change of melting temperature, mutant” value?
Answer: The value was -20.7 °C.

Question: For Q167S, which Tm is on record?
Answer: The Tm was 94.9 °C.

Question: And the “change of melting temperature, mutant” value?
Answer: Its value is 6 °C.

Question: Which results are given for Q167A?
Answer: Tm: 79.8 °C; change of melting temperature, mutant - wild type (higher = more stable): -9.1 °C
